These results are taken from the nanobody polyreactivity screen of Harvey et al. (2022).

This data set in a line: yeast display, Sf9 membrane polyspecificity reagent, FACS + sequencing; frameworks hold sequencing errors. The method, boiled down: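 Using colony PCR, genes from sorted yeast display clones were amplified, then sequenced on MiSeq at 2 × 250 and filtered by CDR length. The clones had been stained with 10% biotinylated, detergent-solubilized Sf9 membrane reagent for 1 hour at 4 °C and sorted by FACS into low and high (top ~1%) gates on anti-HA and streptavidin fluorescence. Polyreactivity labels come from the gate of origin.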
As to “QVQLVESGGGLVQAGGSLRLSCAASGSILSYYVMGWYRQAPGKERELVAAITSDGSKNYADSVKGRFTISRDNAKNTVYLQMNSLKPEDTAVYYCAAVIAWYYGVQDVYYLGLYDYWGQGTQVTVSS”, the “polyreactivity (PSR sort gate)” value is reported as “low polyreactivity”.

Take “QVQLVESGGGLVQAGGSLRLSCAASGSILTGNAMGWYRQAPGKERELVAGITVGGTSTYYADSVKGRFTISRDNAKNTVYLQMNSLKPEDTAVYYCAAGYRSYWGVYDFDYWGQGTQVTVSS”: the “polyreactivity (PSR sort gate)” value is on record as “low polyreactivity”.

For the sequence “QVQLVESGGGLVQAGGSLRLSCAASGSILTVYAMGWYRQAPGKERELVAAITSSGGITYYADSVKGRFTISRDNAKNTVYLQMHSLKPEDTAVYYCAAYGYGSNYRYTGYYYWGQGTQVTVSS”, the “polyreactivity (PSR sort gate)” value was “low polyreactivity”.

In the case of “QVQLVESGGGLVQAGGSLRLSCAASGSILVEYAMGWYRQAPGKERELVAGISGSTGTTYYADSVKGRFTISRDNAKNTVYLQMNSLKPEDTAVYYCAKLFPVARPQYGYWGQGTQVTVSS”, the “polyreactivity (PSR sort gate)” value is recorded as “low polyreactivity”.

Consider “QVQLVESGGGLVQAGGSLRLSCAASGSILVLNDMGWYRQAPGKERELVATITSGGNTYYADSVKGRFTISRDNAKNTVYLQMNSLKPEDTAVYYCNARWQRPYDYWGQGTQVTVSS”, for which the “polyreactivity (PSR sort gate)” value is “low polyreactivity”.

As for “QVQLVESGGGLVQAGGSLRLSCAASGSILVRYAMGWYRQAPGKERELVAAITYSVGSTYYADSVKGRFTISRDNAKNTVYLQMNSLKPEDTAVYYCAASGGTEVLLMDYWGQGSQVTVSS”, the “polyreactivity (PSR sort gate)” value is on record as “low polyreactivity”.

As to “QVQLVESGGGLVQAGGSLRLSCAASGSILVYNAMGWYRQAPGKERELVDAISNTGRTYYADSVKGRFTISRDNAKNTVYLQMNSLKPEDTAVYYCADRFYRVLHRFGYWGQGTQVTVSS”, the “polyreactivity (PSR sort gate)” value is “high polyreactivity”.

Regarding “QVQLVESGGGLVQAGGSLRLSCAASGSILVYYAMGWYRQAPGKERELVAAISSGGSTNYADSVKGRFTISRDNAKNTVYLQMNSLKPEDTAVYYCAKESGWVGAIHYDYWGQGTQVTVSS”, the “polyreactivity (PSR sort gate)” value is given as “low polyreactivity”.

Take “QVQLVESGGGLVQAGGSLRLSCAASGSILWLNAMGWYRQAPGKERELVADITRGGSTYYADSVKGRFTISRDNAKNTVYLQMNSLTPEDTAVYYCAADAYTCQIPYYYFEHYYWGQGTQVTVSS”: the “polyreactivity (PSR sort gate)” value is given as “high polyreactivity”.

Take “QVQLVESGGGLVQAGGSLRLSCAASGSILWYYAMGWYRQAPGKERELVATITSGGSTYYADSVKGRFTMSRDNAKNTVYLQMNILKTEDTAVYYCNADLAVDEYVYWGQGTQVTVSS”: the “polyreactivity (PSR sort gate)” value is “low polyreactivity”.

Regarding “QVQLVESGGGLVQAGGSLRLSCAASGSILYIYAMGWYRQAPGKERELVAAITSSVGRTYYADSVKGRFTISRDNAKNTVYLQMNSLKPEDTAVYYCAAEYYYSQVAYDYWGQGTQVTVSS”, the “polyreactivity (PSR sort gate)” value was “high polyreactivity”.

Take “QVQLVESGGGLVQAGGSLRLSCAASGSILYPNAMGWYRQAPGKERELVAAISSSGGRTYYADSVKGRFTISRDNAKNTVYLQMNSLKPEDTAVYYCATVSIAGPRYDYWGQGTQVTVSS”: the “polyreactivity (PSR sort gate)” value is recorded as “high polyreactivity”.

For the sequence “QVQLVESGGGLVQAGGSLRLSCAASGSILYSYAMGWYRQAPGKERELVARITKRGGRTYYADSVKGRFTISRDNAKNTVYILMNSLKPEDTAVYYCAADFQYSYGEYDYWGQGTQVTVSS”, the “polyreactivity (PSR sort gate)” value was “high polyreactivity”.

With “QVQLVESGGGLVQAGGSLRLSCAASGSILYVYAMGWYRPAPGKETELVAVITSGGSTNYADSVKGRFTISRDNAKNTVYLQMNSLKPEDTAVYYCAADPYSVYGGDYWGKGTQVTVSS”, the “polyreactivity (PSR sort gate)” value is reported as “low polyreactivity”.

Take “QVQLVESGGGLVQAGGSLRLSCAASGSILYVYAMGWYRQAPGKERELVAVITSGGSTNYADSVKGRFTISRDNAKNTVYLQMNSLKPEDTAVYYCRFKYAVAHHFWVYRYDYWGQGTQVTVSS”: the “polyreactivity (PSR sort gate)” value is reported as “low polyreactivity”.

For “QVQLVESGGGLVQAGGSLRLSCAASGSILYYALGWYRQAPGKESELVATITRGGSTYYADSVKGRFTISRDNAKNTVYLQMNSLKPEDTAVYYCAARRAVRVGYYWHDISSYDYWGQGTQVTVSS”, the “polyreactivity (PSR sort gate)” value was “low polyreactivity”.

For “QVQLVESGGGLVQAGGSLRLSCAASGSILYYNAMGWYRQAHGKEREFVASISLTGGSTTYADSVKGRFTISRDNAKNTVYLQMNSLKPEDTAVYYCNATHYPAADRSTNNYGGGFDYWGEGTQVTVSS”, the “polyreactivity (PSR sort gate)” value is “low polyreactivity”.

In the case of “QVQLVESGGGLVQAGGSLRLSCAASGSINHYAMGWYRQAPGKERELVAAISSSGGTTYYADSVKGRFTISRDNAKNTVYLQMNSLKPEDTAVYYCAADKLSGGLDYWGQGTQVTVSS”, the “polyreactivity (PSR sort gate)” value is recorded as “high polyreactivity”.

With “QVQLVESGGGLVQAGGSLRLSCAASGSISDIYTMGWYRQAPGKERELVAAITGSAGSTYADSVKGRFTLSRDNAKNTVYLQMNSLKPEDTAVYYCNAQPGDDVKVKLDYWGQGTQVTVSS”, the “polyreactivity (PSR sort gate)” value is reported as “low polyreactivity”.

As for “QVQLVESGGGLVQAGGSLRLSCAASGSISDWNAMGWYRQAPGKERELVAAINWSGDTTYYADSVKGRFTFSRDNSKNTVYLQMNSLKPEDTAVYYCAAYLVVDYDWYDYWGQGTQVTVSS”, the “polyreactivity (PSR sort gate)” value is on record as “high polyreactivity”.

Take “QVQLVESGGGLVQAGGSLRLSCAASGSISDWNAMGWYRQAPGKERELVAAINWSGDTTYYADSVKGRFTISRDTAKNTVYLQMNSLKPEDTAVYYCAADLVVDYEWYDYWGQGTQVTVSS”: the “polyreactivity (PSR sort gate)” value is given as “high polyreactivity”.

As for “QVQLVESGGGLVQAGGSLRLSCAASGSISDYYAMGWYRQAPGKERELVAAISWDGGSTYYADTVKGRFTISRDNAKNTVYLQMNSLKPEDTAVYYCNAGSGASVGNHILYDYWGQGTQVTVSS”, the “polyreactivity (PSR sort gate)” value is listed as “low polyreactivity”.

In the case of “QVQLVESGGGLVQAGGSLRLSCAASGSISGLNAMGWYRQAPGKERELVAAISRSGGRTYYADSVKGRFTISRDNAKNTVYLQMNSLKPEDTAVYYCAAVTTWRMDYWGQGTQVTVSS”, the “polyreactivity (PSR sort gate)” value is reported as “high polyreactivity”.

“QVQLVESGGGLVQAGGSLRLSCAASGSISGLYAMGWYRQAPGKERELVARIRWRGDSTYYADSVKGRFTISRDNAKNTVYLQMNSLNPEDTAVFYCAASAYSGKVNKYNYWGQGTQVTVSS”: the “polyreactivity (PSR sort gate)” value is “high polyreactivity”.

With “QVQLVESGGGLVQAGGSLRLSCAASGSISGYYTMGWYRQAPGKERELVAAISRSGVRTYYADSVKGRFTISRDNAMNTVYLQMNSLKPEDTAVYYCARKDSSLGDYWGQGTQVTVSS”, the “polyreactivity (PSR sort gate)” value is given as “high polyreactivity”.

In the case of “QVQLVESGGGLVQAGGSLRLSCAASGSISGYYVMGWYRQAPGKERELVAAITWRGGSTYYADSVKGRFTISRDNAKNTVYLQMNSLKPEDTAVYYCNKVPGRRSTFEYWGQGTQVTVSS”, the “polyreactivity (PSR sort gate)” value is reported as “high polyreactivity”.

For “QVQLVESGGGLVQAGGSLRLSCAASGSISIRNAMGWYRQAPGTERELVAAITYSGGSTYYADSVKGRFTISRDNAKNTVYLQLNRLKPEDTAVYYCAKDHYRFRYDYWGQGTQVTVSS”, the “polyreactivity (PSR sort gate)” value is on record as “low polyreactivity”.

For the sequence “QVQLVESGGGLVQAGGSLRLSCAASGSISKFYAMGWYRQAPGKERELVAAISSGGITNYADSLKGRFTISRDNAKNTVYLQMNSLKPEDTAVYYCAKDYPYYEGAKYYYWGQGTQVTVSS”, the “polyreactivity (PSR sort gate)” value is on record as “high polyreactivity”.

Take “QVQLVESGGGLVQAGGSLRLSCAASGSISKINAMGWYRQAPGKERELVAAINTGDSTYYADSVKGRFTISRDNEKNTVYLQMNSLKPEDTAVYYCAAEGSPTGYDYWGQGTQVTVSS”: the “polyreactivity (PSR sort gate)” value is “low polyreactivity”.

As to “QVQLVESGGGLVQAGGSLRLSCAASGSISKYTMGWYRQAPGKERELVAAINWSGGSTYADSVKGRFTISRDNAKNTVYLQMNSLKPEATAVYYCNARAQRGYFGYRYNYWGQGTQVTVSS”, the “polyreactivity (PSR sort gate)” value is given as “high polyreactivity”.

For “QVQLVESGGGLVQAGGSLRLSCAASGSISLLYAMGWYRQAPGKDRELVAAISSGTDDTYYADSVKGRFTISRDNAKNTVYLQMNSLKPEDTAVYYCAADPLFKDDLWPVRVRVDYWGQGTQVTVSS”, the “polyreactivity (PSR sort gate)” value is “low polyreactivity”.

In the case of “QVQLVESGGGLVQAGGSLRLSCAASGSISQTYAMGWYRQAPGKERELVAAISSSGASTYYADSVKGRFTISRDNAKNTVYLQMNCLKPEDTAVYYCAALGRYRYIYNYWGQGTQVTVSS”, the “polyreactivity (PSR sort gate)” value is recorded as “high polyreactivity”.

Take “QVQLVESGGGLVQAGGSLRLSCAASGSISRYAMGWSRQAPGKERELVAAITRSGGSTHYADSVKGRFTISRDNAKNTVYLQMNSLKPEDTAVYYCATRYYRGVIRYPYDSWGQGTQVTVSS”: the “polyreactivity (PSR sort gate)” value was “high polyreactivity”.

For “QVQLVESGGGLVQAGGSLRLSCAASGSISSGYFMGWYRQAPGKERELVAAISFSGGSTYYADSVKGRFTISRDNAKNTVYLQMNSLKPEDTAVYYCNALFWYRYFSGVSQDYDYWGQGTQVTVSS”, the “polyreactivity (PSR sort gate)” value is recorded as “high polyreactivity”.

In the case of “QVQLVESGGGLVQAGGSLRLSCAASGSISSKNSMGWYRQAPGKEREFVAVISGTGGSTYYSDSVKGRFTISRDIAKNTVYLQMNSLKPEDTAVYYCAADFPWSTKSWHPDSGDSWGQGTQVTVSS”, the “polyreactivity (PSR sort gate)” value is “low polyreactivity”.

For “QVQLVESGGGLVQAGGSLRLSCAASGSISTFYAMGWYRQAPGKEREFVAAISTRDGTTRYADSVKGRFTISRDNAKNTVYLQMNSLKPEDTAVYYCAAKGGGVWLYARIYSDYYWGQGTQVTVSS”, the “polyreactivity (PSR sort gate)” value is recorded as “low polyreactivity”.

Turning to “QVQLVESGGGLVQAGGSLRLSCAASGSISTPYTMGWYRQAPGKERELVADISWIGDTTSYADSVKGRFTISRDNAKNTVYLLMNSLKPEDTAVYYCNAEHRGYEYWGQGTQVTVSS”, the “polyreactivity (PSR sort gate)” value was “low polyreactivity”.

For the sequence “QVQLVESGGGLVQAGGSLRLSCAASGSISTWYAMGWYRQAPGKERELVAAINSGDSTYYADSVKGRFTISRDNAKNTVYLQMNSLKPEDTAVYYCAASSYSSKPFDYWGQGTQVTVSS”, the “polyreactivity (PSR sort gate)” value is “high polyreactivity”.

For the sequence “QVQLVESGGGLVQAGGSLRLSCAASGSISTYYAMGWYRQAPGKERELVAAITRNGGSTYYADSVKGRFTISRDNSKNTVYLQMNSLKPEDTAVYYCAARNAFGTYYYWGQGTQVTVSS”, the “polyreactivity (PSR sort gate)” value is given as “high polyreactivity”.

Regarding “QVQLVESGGGLVQAGGSLRLSCAASGSISVANAMGWYRQAPGKERELVAAITDSGDDTYYADSVKGRFTISRDNAKNTVYLQMNSLKPEDTAVYYCAVEAWSVPPYDYWGQGTIVTVSS”, the “polyreactivity (PSR sort gate)” value is “low polyreactivity”.

Take “QVQLVESGGGLVQAGGSLRLSCAASGSISYFNAMGWYIQAPGKERELVAAISRGATTYADSVKGRFTISRDNAKNTVYLQMNSLKPEDTAVYYCNAGLRGNIRKSYRYDSWGQGTQVTVSS”: the “polyreactivity (PSR sort gate)” value is given as “high polyreactivity”.
